B1: CPEB3 Ribozyme (parent)
chain: UAACAGGGGGCCACAGCAGAAGCGUUCACGUCGCAGCCCCUGUCAGAUUCUGGUGAAUCUGCGAAUUCUGCUGUAUAUCUC

Variants of: B1
Experiment: self-cleavage, relative activity (ratio to wild type); higher = more cleavage; in vitro, sequencing
In short: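 For each CPEB3 ribozyme variant, relative activity is its cleaved/total read fraction divided by the unmutated ribozyme's. Barcoded error-prone PCR libraries were transcribed by T7 RNA polymerase (5 hours, 37°C) and held in DNase I for 15 min before an EDTA stop, with cleavage occurring throughout. Template-switching reverse transcription and Illumina sequencing were used to read the RNAs. A 5-read minimum applied, and results are the mean of three batches.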

First: UAACAGGGGGCCACAGCAGAAGCGUACACGUCGCAGCCCCUGUCAGAUUCUGGUGAAUCUGCGAAUUCUGCAGUAUAUCUC [U26A U72A]
Second: UAACAGGGGGCCACAGCAGAAGCGUACACGUCGCAGCCCCUGUCAGAUUCUGGUGAAUCUGCGAAUUCUGCCGUAUAUCUC [U26A U72C]
The self-cleavage of the first is lower: 0.75 for the first, 1.13 for the second.

First: UAACAGGGGGCCACAGCAGAAGCGUACACGUCGCAGCCCCUGUCAGAUUCUGGUGAAUCUGCGAAUUCUGCGGUAUAUCUC [U26A U72G]
Second: UAACAGGGGGCCACAGCAGAAGCGUACACGUCGCAGCCCCUGUCAGAUUCUGGUGAAUCUGCGAAUUCUGCUGUAUAUCUG [U26A C81G]
The self-cleavage of the first is lower: 0.83 for the first, 1.1 for the second.

First: UAACAGGGGGCCACAGCAGAAGCGUACACGUCGCAGCCCCUGUCAGAUUCUGGUGAAUCUGCUAAUUCUGCUGUAUAUCUC [U26A G63U]
Second: UAACAGGGGGCCACAGCAGAAGCGUACACGUCGCAGCCCCUGUCAGAUUCUGGUGAAUCUGCAAAUUCUGCUGUAUAUCUC [U26A G63A]
The self-cleavage of the first is higher: 0.87 for the first, 0.74 for the second.

Going from UAACAGGGGGCCACAGCAGAAGCGUACACGUCGCAGCCCCUGUCAGAUUCCGGUGAAUCUGCGAAUUCUGCUGUAUAUCUC [U26A U51C] to UAACAGGGGGCCACAGCAGAAGCGUACACGUCGCAGCCCCUGUCAGAUUCAGGUGAAUCUGCGAAUUCUGCUGUAUAUCUC [U26A U51A], the self-cleavage falls from 0.84 to 0.81.

Going from UAACAGGGGGCCACAGCAGAAGCGUACACGUCGCAGCCCCUGUCAGAUUCGGGUGAAUCUGCGAAUUCUGCUGUAUAUCUC [U26A U51G] to UAACAGGGGGCCACAGCAGAAGCGUACACGUCGCAGCCCCUGUCAGAUUCUGGUGAAUCAGCGAAUUCUGCUGUAUAUCUC [U26A U60A], the self-cleavage falls from 0.8 to 0.52.

Compared with UAACAGGGGGCCACAGCAGAAGCGUACACGUCGCAGCCCCUGUCAGAUUCUGGUGAAUCCGCGAAUUCUGCUGUAUAUCUC [U26A U60C], UAACAGGGGGCCACAGCAGAAGCGUACACGUCGCAGCCCCUGUCAGACUCUGGUGAAUCUGCGAAUUCUGCUGUAUAUCUC [U26A U48C] is higher in self-cleavage: 0.34 for the first, 0.47 for the second.

Going from UAACAGGGGGCCACAGCAGAAGCGUACACGUCGCAGCCCCUGUCAGAGUCUGGUGAAUCUGCGAAUUCUGCUGUAUAUCUC [U26A U48G] to UAACAGGGGGCCACAGCAGAAGCGUACACGUCGCAGCCCCUGUCAGAAUCUGGUGAAUCUGCGAAUUCUGCUGUAUAUCUC [U26A U48A], the self-cleavage falls from 0.37 to 0.35.

First: UAACAGGGGGCCACAGCAGAAGCGUACACGUCGCAGCCCCUGUCAGAUUCUGGUGAAUCUGCGAAUUCUGCUGUAUAGCUC [U26A U78G]
Second: UAACAGGGGGCCACAGCAGAAGCGUACACGUCGCAGCCCCUGUCAGAUUCUGGUGAAUCUGCGAAUUCUGCUGUAUACCUC [U26A U78C]
The self-cleavage of the first is lower: 0.5 for the first, 0.82 for the second.

Compared with UAACAGGGGGCCACAGCAGAAGCGUACACGUCGCAGCCCCUGUCAGAUUCUGGUGAAUCUGCGAAUUCUGCUGUAUAACUC [U26A U78A], UAACAGGGGGCCACAGCAGAAGCGUACACGUCACAGCCCCUGUCAGAUUCUGGUGAAUCUGCGAAUUCUGCUGUAUAUCUC [U26A G33A] is lower in self-cleavage: 0.67 for the first, 0.17 for the second.

First: UAACAGGGGGCCACAGCAGAAGCGUACACGUCUCAGCCCCUGUCAGAUUCUGGUGAAUCUGCGAAUUCUGCUGUAUAUCUC [U26A G33U]
Second: UAACAGGGGGCCACAGCAGAAGCGUACACGUCGCAGCCCCUGUCAGAUUCUGGUGAAGCUGCGAAUUCUGCUGUAUAUCUC [U26A U58G]
The self-cleavage of the first is lower: 0.1 for the first, 0.17 for the second.

Going from UAACAGGGGGCCACAGCAGAAGCGUACACGUCGCAGCCCCUGUCAGAUUCUGGUGAACCUGCGAAUUCUGCUGUAUAUCUC [U26A U58C] to UAACAGGGGGCCACAGCAGAAGCGUACACGUCGCAGCCCCUGUCAGAUUCUGGUGAAACUGCGAAUUCUGCUGUAUAUCUC [U26A U58A], the self-cleavage falls from 0.39 to 0.23.

First: UAACAGGGGGCCACAGCAGAAGCGUACACGUCGCAGCCCCUGUCAGAUUCUGGGGAAUCUGCGAAUUCUGCUGUAUAUCUC [U26A U54G]
Second: UAACAGGGGGCCACAGCAGAAGCGUACACGUCGCAGCCCCUGUCAGAUUCUGGCGAAUCUGCGAAUUCUGCUGUAUAUCUC [U26A U54C]
The self-cleavage of the first is lower: 0.53 for the first, 0.84 for the second.

Going from UAACAGGGGGCCACAGCAGAAGCGUACACGUCGCAGCCCCUGUCAGAUUCUGGAGAAUCUGCGAAUUCUGCUGUAUAUCUC [U26A U54A] to UAACAGGGGGCCACAGCAGAAGCGUACACGACGCAGCCCCUGUCAGAUUCUGGUGAAUCUGCGAAUUCUGCUGUAUAUCUC [U26A U31A], the self-cleavage falls from 0.82 to 0.34.

Going from UAACAGGGGGCCACAGCAGAAGCGUACACGCCGCAGCCCCUGUCAGAUUCUGGUGAAUCUGCGAAUUCUGCUGUAUAUCUC [U26A U31C] to UAACAGGGGGCCACAGCAGAAGCGUACACGUCGCAGCCCCUGUCAGAUUCUGGUGAAUCUGCGAAUUCUGCUGUAUAUCCC [U26A U80C], the self-cleavage rises from 0.69 to 1.02.

Going from UAACAGGGGGCCACAGCAGAAGCGUACACGUCGCAGCCCCUGUCAGAUUCUGGUGAAUCUGCGAAUUCUGCUGUAUAUCGC [U26A U80G] to UAACAGGGGGCCACAGCAGAAGCGUACACGUCGCAGCCCCUGUCAGAUUCUGGUGAAUCUGCGAAUUCUGCUGUAUAUCAC [U26A U80A], the self-cleavage falls from 1.06 to 0.96.

Compared with UAACAGGGGGCCACAGCAGAAGCGUACACGUCGCAGCCCCUAUCAGAUUCUGGUGAAUCUGCGAAUUCUGCUGUAUAUCUC [U26A G42A], UAACAGGGGGCCACAGCAGAAGCGUACACGUCGCAGCCCCUGUCAGAUUCUCGUGAAUCUGCGAAUUCUGCUGUAUAUCUC [U26A G52C] is higher in self-cleavage: 0.29 for the first, 1 for the second.

First: UAACAGGGGGCCACAGCAGAAGCGUACACGUCGCAGCCCCUGUCAGAUUCUAGUGAAUCUGCGAAUUCUGCUGUAUAUCUC [U26A G52A]
Second: UAACAGGGGGCCACAGCAGAAGCGUACACGUCGCAGCCCCUGUCAGAUUCUUGUGAAUCUGCGAAUUCUGCUGUAUAUCUC [U26A G52U]
The self-cleavage of the first is lower: 1.06 for the first, 1.08 for the second.

Reference: the RNAGym collection of RNA variant scans (doi:10.1093/nar/gkz1192)
